{"source": "paper PMC5050560", "binders": {"B1": {"name": "Pr27 (PcdpadR1) (dsDNA)", "DNA 1": "TAAACCTTGTATTATAGAGTACTATGTATTATTATAGTAAATATAAGTACTATACATTATAGAGTAGTAGGTGAAAAGGCGGTGGTACATAATGCAGTTA", "DNA 2": "TAACTGCATTATGTACCACCGCCTTTTCACCTACTACTCTATAATGTATAGTACTTATATTTACTATAATAATACATAGTACTCTATAATACAAGGTTTA"}, "B2": {"name": "Pr33 (dsDNA)", "DNA 1": "GAGTACTATGTATTATTATAGTAAATATAAGTACTATACATTATAGAGTAGTAG", "DNA 2": "CTACTACTCTATAATGTATAGTACTTATATTTACTATAATAATACATAGTACTC"}, "B3": {"name": "Pr43 (dsDNA)", "DNA 1": "CTATGTATTATTATAGTAAATATAAGTACTATACATTA", "DNA 2": "TAATGTATAGTACTTATATTTACTATAATAATACATAG"}, "B4": {"name": "Pr31 (dsDNA)", "DNA 1": "AATATAAGTACTATACATTATAGAGTAGTAGGTGAAAAGGCGGTGGTACATAATGCAGTTA", "DNA 2": "TAACTGCATTATGTACCACCGCCTTTTCACCTACTACTCTATAATGTATAGTACTTATATT"}, "B5": {"name": "Pr121 (dsDNA)", "DNA 1": "AAGCTACCTTGCATAAATATCTTGGATAGTATATTGATTATATAATCAGTAAATGTTATACTTTTCATGACGATAAAAACATTTTAGTCATAAGGGGGTT", "DNA 2": "AACCCCCTTATGACTAAAATGTTTTTATCGTCATGAAAAGTATAACATTTACTGATTATATAATCAATATACTATCCAAGATATTTATGCAAGGTAGCTT"}, "B6": {"name": "Pr35 (dsDNA)", "DNA 1": "CATTTAAAGAATGGGATATTATGTAATTGTAGATTATGTAGGTTTAAATTATTTATTTTTGTTTTAGCAAATTCTATGAATAGAAGGGGTTTGATTATGG", "DNA 2": "CCATAATCAAACCCCTTCTATTCATAGAATTTGCTAAAACAAAAATAAATAATTTAAACCTACATAATCTACAATTACATAATATCCCATTCTTTAAATG"}, "B7": {"name": "Pr67 (dsDNA)", "DNA 1": "AGTACTATACATTATAGAGTAGT", "DNA 2": "ACTACTCTATAATGTATAGTACT"}, "B8": {"name": "Pr111 (dsDNA)", "DNA 1": "ATATAGGAAATATAGAACAGATTTTCCAAGAAATCTAAATATTCTATGACCACGTGAATTGCTATGCACACATGTTGATAATCCATATTTTAAATCTAAA", "DNA 2": "TTTAGATTTAAAATATGGATTATCAACATGTGTGCATAGCAATTCACGTGGTCATAGAATATTTAGATTTCTTGGAAAATCTGTTCTATATTTCCTATAT"}, "B9": {"name": "Pr32 (dsDNA)", "DNA 1": "TGTATTATAGAGTACTATGTATTATTATAGTAAATATAAGTACTATACATTATAGAGTAGTAGG", "DNA 2": "CCTACTACTCTATAATGTATAGTACTTATATTTACTATAATAATACATAGTACTCTATAATACA"}, "B10": {"name": "Pr69 (dsDNA)", "DNA 1": "ATGCTATAATTTTATCACTATGGTACTATATTACAATAATGCACTTTTTTGTAATATAGTATCTAAAAAGATACTTTAAAATAAATAAAGGAGCTCAAAA", "DNA 2": "TTTTGAGCTCCTTTATTTATTTTAAAGTATCTTTTTAGATACTATATTACAAAAAAGTGCATTATTGTAATATAGTACCATAGTGATAAAATTATAGCAT"}, "B11": {"name": "Pr30 (dsDNA)", "DNA 1": "TATAGTAAATATAAGTACTATACATTATAGAGTAGTAGGTGAAAAGGCGGTGGTACATAATGCAGTTA", "DNA 2": "TAACTGCATTATGTACCACCGCCTTTTCACCTACTACTCTATAATGTATAGTACTTATATTTACTATA"}, "B12": {"name": "Pr41 (dsDNA)", "DNA 1": "TACTATACATTATAGAGTAGTA", "DNA 2": "TACTACTCTATAATGTATAGTA"}, "B13": {"name": "Pr68 (dsDNA)", "DNA 1": "GTACTATACATTATAGAGTAG", "DNA 2": "CTACTCTATAATGTATAGTAC"}, "B14": {"name": "Pr54 (dsDNA)", "DNA 1": "GTAAATATAAGTACTATACATTATAGAGTAG", "DNA 2": "CTACTCTATAATGTATAGTACTTATATTTAC"}, "B15": {"name": "Pr88 (dsDNA)", "DNA 1": "GTACTATGTATTATTATAGTAA", "DNA 2": "TTACTATAATAATACATAGTAC"}, "B16": {"name": "Pr42 (dsDNA)", "DNA 1": "CTATACATTATAG", "DNA 2": "CTATAATGTATAG"}, "B17": {"name": "Pr70 (dsDNA)", "DNA 1": "TTATTTACCCCCTATTGTTTTATTAGGCTAAGTTGATGATTTATTTAACCTATGCTATAATTTTATCACTATGGTACTATATTACAATAATGCACTTTTT", "DNA 2": "AAAAAGTGCATTATTGTAATATAGTACCATAGTGATAAAATTATAGCATAGGTTAAATAAATCATCAACTTAGCCTAATAAAACAATAGGGGGTAAATAA"}, "B18": {"name": "Pr34 (dsDNA)", "DNA 1": "TTTGATGAAAAAAATGTTACAATATTTAATATTGAAAATGGCGATGTTATTAGCATAGAGAATGGAGGAAATTAAATGAAACAAGAATACGGTGCAAGTC", "DNA 2": "GACTTGCACCGTATTCTTGTTTCATTTAATTTCCTCCATTCTCTATGCTAATAACATCGCCATTTTCAATATTAAATATTGTAACATTTTTTTCATCAAA"}, "B19": {"name": "Pr122 (dsDNA)", "DNA 1": "TAGAGTACTATGTATTATTATAGTAAATAT", "DNA 2": "ATATTTACTATAATAATACATAGTACTCTA"}, "B20": {"name": "Pr53 (dsDNA)", "DNA 1": "AATATAAGTACTATACATTATAGAG", "DNA 2": "CTCTATAATGTATAGTACTTATATT"}, "B21": {"name": "Pr48 (PnorV) (dsDNA)", "DNA 1": "TTTTAACCCTCCTAAAATTTATCATTATATAAGTAACATACCCAATTTTGAGGTGAATGAAACAAAAGATGTCATGATAAGTCATGTAAAACAATAGTTT", "DNA 2": "AAACTATTGTTTTACATGACTTATCATGACATCTTTTGTTTCATTCACCTCAAAATTGGGTATGTTACTTATATAATGATAAATTTTAGGAGGGTTAAAA"}, "B22": {"name": "Pr120 (dsDNA)", "DNA 1": "TTTTTATTCCTCCCTTTTTATTTATTAAAATTTATTATATTTTTCTATGATTCACTTAATTAAATTTCTCCATCTACAATTTTTCCATCTACAGATATAG", "DNA 2": "CTATATCTGTAGATGGAAAAATTGTAGATGGAGAAATTTAATTAAGTGAATCATAGAAAAATATAATAAATTTTAATAAATAAAAAGGGAGGAATAAAAA"}, "B23": {"name": "Pr29 (dsDNA)", "DNA 1": "TAAACCTTGTATTATAGAGTACTATGTATTATTATAGTAAATATAAGTACTATACATTATAGAG", "DNA 2": "CTCTATAATGTATAGTACTTATATTTACTATAATAATACATAGTACTCTATAATACAAGGTTTA"}}, "biological_target": "cdPadR1 (Clostridium difficile R20291, UniProt A0A9R0CDW8 1-109)", "experiment": "EMSA; 20 mM Tris pH 8.0, 120 mM KCl, 10 mM MgCl2, 5 mM DTT, 12.5% glycerol, 125 ug/mL heparin, room temperature", "settings": "protein: recombinant; tags: N-terminal Strep II; chain copies: 2", "data": [{"binder": "B1", "values": [{"measurement": "binding result", "value": "binds"}]}, {"binder": "B2", "values": [{"measurement": "binding result", "value": "binds"}]}, {"binder": "B3", "values": [{"measurement": "binding result", "value": "no binding"}]}, {"binder": "B4", "values": [{"measurement": "binding result", "value": "binds"}]}, {"binder": "B5", "values": [{"measurement": "binding result", "value": "binds"}]}, {"binder": "B6", "values": [{"measurement": "binding result", "value": "binds"}]}, {"binder": "B7", "values": [{"measurement": "binding result", "value": "binds"}]}, {"binder": "B8", "values": [{"measurement": "binding result", "value": "binds"}]}, {"binder": "B9", "values": [{"measurement": "binding result", "value": "binds"}]}, {"binder": "B10", "values": [{"measurement": "binding result", "value": "binds"}]}, {"binder": "B11", "values": [{"measurement": "binding result", "value": "binds"}]}, {"binder": "B12", "values": [{"measurement": "binding result", "value": "binds"}]}, {"binder": "B13", "values": [{"measurement": "binding result", "value": "binds"}]}, {"binder": "B14", "values": [{"measurement": "binding result", "value": "binds"}]}, {"binder": "B15", "values": [{"measurement": "binding result", "value": "no binding"}]}, {"binder": "B16", "values": [{"measurement": "binding result", "value": "no binding"}]}, {"binder": "B17", "values": [{"measurement": "binding result", "value": "binds"}]}, {"binder": "B18", "values": [{"measurement": "binding result", "value": "binds"}]}, {"binder": "B19", "values": [{"measurement": "binding result", "value": "binds"}]}, {"binder": "B20", "values": [{"measurement": "binding result", "value": "no binding"}]}, {"binder": "B21", "values": [{"measurement": "binding result", "value": "binds"}]}, {"binder": "B22", "values": [{"measurement": "binding result", "value": "binds"}]}, {"binder": "B23", "values": [{"measurement": "binding result", "value": "binds"}]}]}
